In data set [1] the target is butelase-1 (active form extracted from Clitoria ternatea plant material) (Clitoria ternatea). Description: affinity binding of glycosylated enzyme to ConA agarose beads, 4 C 3 h; unbound protein in flow-through measured by A280.
The target is the same in data set [2]. Description: affinity binding of glycosylated enzyme to ConA agarose beads; unbound protein measured by A280.
In data set [3] the target is biotinylated VyPAL2 (Viola yedoensis). Description: affinity binding of biotinylated enzyme to NeutrAvidin agarose beads, pH 6.5, 4 C 3 h; unbound protein measured by A280.
Data set [4] has as its target biotinylated butelase-1 (Clitoria ternatea). The description is as above.
The target of data set [5] is T1, GN14-SLAN (GISTKSIPPISYRNSLAN).
T1 chain: GISTKSIPPISYRNSLAN

“Concanavalin A (ConA) on agarose beads (from UniProt P02866 30-281)”: in data set [1], the Yield (%) (observed / expected maximal concentration on beads) was found to be 39%. This molecule also displayed a percent of enzyme remaining in the solution (unbound) in data set [2] of 61%. For “NeutrAvidin (deglycosylated avidin) on agarose beads (from UniProt P02701 25-152)”, the Yield (%) (observed / expected maximal concentration on beads) in data set [3] is 45%; in data set [4], 49%.

B1: butelase-1 (active form extracted from Clitoria ternatea plant material) (protein)
chain: VEGTRWAVLVAGSKGYVNYRHQADVCHAYQILKKGGLKDENIIVFMYDDIAYNESNPHPGVIINHPYGSDVYKGVPKDYVGEDINPPNFYAVLLANKSALTGTGSGKVLDSGPNDHVFIYYTDHGGAGVLGMPSKPYIAASDLNDVLKKKHASGTYKSIVFYVESCESGSMFDGLLPEDHNIYVMGASDTGESSWVTYCPLQHPSPPPEYDVCVGDLFSVAWLEDCDVHNLQTETFQQQYEVVKNKTIVALIEDGTHVVQYGDVGLSKQTLFVYMGTDPAN
With B1, the “catalytic efficiency (kcat/KM) of cyclization, HPLC-based kinetics, pH 6.5, 37 C” value in data set [5] is recorded as 971,936 M^-1s^-1.

B2: VyPAL2 (recombinant, insect-cell expressed, acid-activated active form) (protein)
chain: STNDDDSIGTRWAVLIAGSKGYHNYRHQADVCHMYQILRKGGVKDENIIVFMYDDIAYNESNPFPGIIINKPGGENVYKGVPKDYTGEDINNVNFLAAILGNKSAIIGGSGKVLDTSPNDHIFIYYADHGAPGKIGMPSKPYLYADDLVDTLKQKAATGTYKSMVFYVEACNAGSMFEGLLPEGTNIYAMAASNSTEGSWITYCPGTPDFPPEFDVCLGDLWSITFLEDCDAHNLRTETVHQQFELVKKKIAYASTVSQYGDIPISKDSLSVYMGTDPANDNRTFVDEN
In the case of B2, in data set [5], the “catalytic efficiency (kcat/KM) of cyclization, HPLC-based kinetics, pH 6.5, 37 C” value is listed as 274,325 M^-1s^-1.

Values taken from patent US20220213461A1.
